{"source": "the RNAGym collection of RNA variant scans (doi:10.1093/nar/gkz1192)", "parents": {"B1": {"name": "CPEB3 Ribozyme (parent)", "chain": "UAACAGGGGGCCACAGCAGAAGCGUUCACGUCGCAGCCCCUGUCAGAUUCUGGUGAAUCUGCGAAUUCUGCUGUAUAUCUC"}}, "data": [{"variants_of": "B1", "test": "self-cleavage, relative activity (ratio to wild type); higher = more cleavage; in vitro, sequencing", "procedure,_shortened": "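Relative activity was defined as the cleaved/total read fraction for a variant divided by the same fraction for the unmutated ribozyme. CPEB3 self-cleaving ribozyme libraries were made by rounds of error-prone PCR, barcoded, and transcribed in vitro with T7 RNA polymerase for 5 hours at 37°C, and cleavage ran through transcription plus a 15 min DNase I step before EDTA. Illumina sequencing of template-switched reverse transcripts gave the reads, and DNA sequencing mapped the barcodes. Averages come from three batches, using variants with at least 5 reads.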", "values": [{"variant": "G24C U76C", "self-cleavage": 0.2}, {"variant": "G24C U54C", "self-cleavage": 0.14}, {"variant": "G24C U54A", "self-cleavage": 0.13}, {"variant": "G24A U54A", "self-cleavage": 0.25}, {"variant": "G24A U54G", "self-cleavage": 0.15}, {"variant": "G24A U54C", "self-cleavage": 0.27}, {"variant": "G24C", "self-cleavage": 0.31}, {"variant": "G24U", "self-cleavage": 0.3}, {"variant": "G24A", "self-cleavage": 0.27}, {"variant": "G24C A64G", "self-cleavage": 0.45}, {"variant": "C23U U48C", "self-cleavage": 0.14}, {"variant": "G24A C40U", "self-cleavage": 0.1}, {"variant": "G24C A75U", "self-cleavage": 0.33}, {"variant": "G24C U67C", "self-cleavage": 0.11}, {"variant": "G24C U67A", "self-cleavage": 0.21}, {"variant": "G24A C29G", "self-cleavage": 0.21}, {"variant": "G24C A45U", "self-cleavage": 0.13}, {"variant": "G24C A45G", "self-cleavage": 0.21}, {"variant": "G24A U72C", "self-cleavage": 0.25}, {"variant": "G24A U72A", "self-cleavage": 0.29}, {"variant": "G24A C27A", "self-cleavage": 0.18}, {"variant": "G24A C27U", "self-cleavage": 0.3}, {"variant": "G24C A35G", "self-cleavage": 0.1}, {"variant": "G24A U80A", "self-cleavage": 0.24}, {"variant": "G24A U80C", "self-cleavage": 0.59}, {"variant": "G24U A45U", "self-cleavage": 0.18}, {"variant": "G24U A45C", "self-cleavage": 0.22}, {"variant": "C23U U49G", "self-cleavage": 0.41}, {"variant": "C23U U49C", "self-cleavage": 0.28}, {"variant": "G24A C71U", "self-cleavage": 0.36}, {"variant": "G24A C71G", "self-cleavage": 0.09}, {"variant": "C23U U76A", "self-cleavage": 0.22}, {"variant": "C23U U76C", "self-cleavage": 0.4}, {"variant": "G24A U26A", "self-cleavage": 0.16}, {"variant": "G24A U26C", "self-cleavage": 0.3}, {"variant": "G24A C44U", "self-cleavage": 0.18}, {"variant": "G24C A47G", "self-cleavage": 0.48}, {"variant": "G24A U76C", "self-cleavage": 0.26}, {"variant": "G24U A35U", "self-cleavage": 0.19}, {"variant": "G24U A35G", "self-cleavage": 0.9}, {"variant": "G24A A77U", "self-cleavage": 0.46}, {"variant": "G24A A77G", "self-cleavage": 0.23}, {"variant": "G24A G42A", "self-cleavage": 0.12}, {"variant": "G24C U80C", "self-cleavage": 0.36}, {"variant": "G24C A57U", "self-cleavage": 0.11}, {"variant": "G24C A57G", "self-cleavage": 0.11}, {"variant": "C23U U69C", "self-cleavage": 0.19}, {"variant": "C23U U69A", "self-cleavage": 0.1}, {"variant": "G24A U78G", "self-cleavage": 0.16}, {"variant": "G24A U78C", "self-cleavage": 0.33}, {"variant": "G24A U78A", "self-cleavage": 0.07}, {"variant": "G24C G73A", "self-cleavage": 0.16}, {"variant": "G24A U25A", "self-cleavage": 0.26}, {"variant": "G24A U25C", "self-cleavage": 0.25}, {"variant": "C23U U51C", "self-cleavage": 0.07}, {"variant": "C23U U51A", "self-cleavage": 0.2}, {"variant": "G24A U67C", "self-cleavage": 0.22}, {"variant": "G24A U67A", "self-cleavage": 0.18}, {"variant": "G24C U31A", "self-cleavage": 0.19}, {"variant": "G24C U31C", "self-cleavage": 0.1}, {"variant": "G24C U31G", "self-cleavage": 0.34}, {"variant": "G24C U60A", "self-cleavage": 0.45}, {"variant": "G24A G73C", "self-cleavage": 0.4}, {"variant": "G24A G73A", "self-cleavage": 0.14}, {"variant": "G24C U48C", "self-cleavage": 0.22}, {"variant": "G24A A35U", "self-cleavage": 0.17}, {"variant": "G24A A35G", "self-cleavage": 0.38}, {"variant": "G24A A47G", "self-cleavage": 0.27}, {"variant": "G24A A47U", "self-cleavage": 0.21}, {"variant": "G24A G63A", "self-cleavage": 0.37}, {"variant": "G24A G63C", "self-cleavage": 0.16}, {"variant": "G24A G30A", "self-cleavage": 0.24}, {"variant": "G24C U66C", "self-cleavage": 0.26}, {"variant": "G24A A28G", "self-cleavage": 0.25}, {"variant": "G24A A28U", "self-cleavage": 0.14}, {"variant": "C23U U72C", "self-cleavage": 0.48}, {"variant": "C23U U72A", "self-cleavage": 0.22}, {"variant": "C23U U72G", "self-cleavage": 0.1}, {"variant": "G24A U41C", "self-cleavage": 0.3}, {"variant": "G24A U41A", "self-cleavage": 0.21}, {"variant": "G24A U41G", "self-cleavage": 0.12}, {"variant": "G24C C29A", "self-cleavage": 0.23}, {"variant": "C23U U80G", "self-cleavage": 0.26}, {"variant": "C23U U80A", "self-cleavage": 0.28}, {"variant": "G24C A28U", "self-cleavage": 0.28}, {"variant": "G24C A28G", "self-cleavage": 0.41}, {"variant": "G24U A28G", "self-cleavage": 0.17}, {"variant": "G24A G55A", "self-cleavage": 0.1}, {"variant": "G24C A77G", "self-cleavage": 0.3}, {"variant": "G24C A77U", "self-cleavage": 0.09}, {"variant": "G24A A64G", "self-cleavage": 0.36}, {"variant": "G24A A64U", "self-cleavage": 0.28}, {"variant": "G24A G53A", "self-cleavage": 0.53}, {"variant": "G24A C62U", "self-cleavage": 0.18}, {"variant": "G24A U49A", "self-cleavage": 0.39}, {"variant": "G24A U49C", "self-cleavage": 0.21}, {"variant": "G24A A56U", "self-cleavage": 0.37}, {"variant": "G24A A56G", "self-cleavage": 0.13}, {"variant": "G24A A65G", "self-cleavage": 0.28}, {"variant": "G24C U58C", "self-cleavage": 0.2}, {"variant": "G24A C81A", "self-cleavage": 0.16}, {"variant": "G24A G61C", "self-cleavage": 0.09}, {"variant": "G24A G61A", "self-cleavage": 0.19}, {"variant": "G24C U49C", "self-cleavage": 0.46}, {"variant": "G24A U51A", "self-cleavage": 0.15}, {"variant": "G24A U51C", "self-cleavage": 0.31}, {"variant": "G24A U51G", "self-cleavage": 0.11}, {"variant": "G24A A45U", "self-cleavage": 0.25}, {"variant": "G24A A45C", "self-cleavage": 0.36}, {"variant": "G24A A45G", "self-cleavage": 0.24}, {"variant": "G24A G36U", "self-cleavage": 0.1}, {"variant": "G24A G36A", "self-cleavage": 0.15}, {"variant": "G24A C37A", "self-cleavage": 0.17}, {"variant": "C23U U78C", "self-cleavage": 0.27}, {"variant": "G24A U66A", "self-cleavage": 0.3}, {"variant": "G24A U66C", "self-cleavage": 0.39}, {"variant": "G24A U58A", "self-cleavage": 0.34}, {"variant": "G24A U58C", "self-cleavage": 0.12}, {"variant": "G24A U60G", "self-cleavage": 0.13}, {"variant": "G24A U60A", "self-cleavage": 0.28}, {"variant": "G24A U60C", "self-cleavage": 0.24}, {"variant": "G24A U69C", "self-cleavage": 0.32}, {"variant": "G24A U69A", "self-cleavage": 0.25}, {"variant": "G24A U69G", "self-cleavage": 0.13}, {"variant": "G24A C68A", "self-cleavage": 0.07}, {"variant": "C23U U54G", "self-cleavage": 0.31}, {"variant": "C23U U54A", "self-cleavage": 0.31}, {"variant": "C23U U54C", "self-cleavage": 0.16}, {"variant": "G24A U74G", "self-cleavage": 0.13}, {"variant": "G24A U74A", "self-cleavage": 0.18}, {"variant": "C23U U60C", "self-cleavage": 0.15}, {"variant": "C23U U60A", "self-cleavage": 0.26}, {"variant": "G24C G30C", "self-cleavage": 0.11}, {"variant": "C23U U66C", "self-cleavage": 0.15}, {"variant": "G24C U51A", "self-cleavage": 0.3}, {"variant": "G24C U51C", "self-cleavage": 0.32}, {"variant": "G24A U31C", "self-cleavage": 0.15}, {"variant": "G24A U31A", "self-cleavage": 0.2}, {"variant": "C23U U74A", "self-cleavage": 0.58}, {"variant": "C23U U74C", "self-cleavage": 0.76}, {"variant": "G24A A75G", "self-cleavage": 0.32}, {"variant": "G24A A75U", "self-cleavage": 0.25}, {"variant": "G24C U72C", "self-cleavage": 0.15}, {"variant": "G24C U72A", "self-cleavage": 0.19}, {"variant": "G24C U72G", "self-cleavage": 0.2}, {"variant": "C23U U67C", "self-cleavage": 0.28}, {"variant": "C23U U67A", "self-cleavage": 0.16}, {"variant": "C23U U67G", "self-cleavage": 0.38}, {"variant": "G24C G61A", "self-cleavage": 0.18}, {"variant": "G24A C39U", "self-cleavage": 0.17}, {"variant": "G24A G46A", "self-cleavage": 0.2}, {"variant": "G24C U25A", "self-cleavage": 0.21}, {"variant": "G24A A57C", "self-cleavage": 0.15}, {"variant": "G24A A57G", "self-cleavage": 0.15}, {"variant": "G24A G52A", "self-cleavage": 0.21}, {"variant": "G24A G52U", "self-cleavage": 0.37}, {"variant": "C23U U58A", "self-cleavage": 0.34}, {"variant": "G24C G63A", "self-cleavage": 0.18}, {"variant": "G24C G42A", "self-cleavage": 0.32}, {"variant": "G24A U43C", "self-cleavage": 0.32}, {"variant": "G24A U43A", "self-cleavage": 0.17}, {"variant": "G24C U43C", "self-cleavage": 0.18}, {"variant": "G24C U43A", "self-cleavage": 0.54}, {"variant": "G24A U48C", "self-cleavage": 0.22}, {"variant": "G24A C32A", "self-cleavage": 0.29}, {"variant": "G24C U69A", "self-cleavage": 0}, {"variant": "G24C U69C", "self-cleavage": 0.17}]}]}
